This note sets out measurements from US20100291103A1 (DOMANTIS, published 2010).

Assay [1] has as its target T1, TNFR1-FC fusion (human TNFR1 receptor binding assay) (human, UniProt P19438 22-211, limits assumed).
T1 construct: also called TNFR1 (RBA); not shown: Fc part, captured by goat anti-human IgG (H&L); not described further
T1 sequence (looked up): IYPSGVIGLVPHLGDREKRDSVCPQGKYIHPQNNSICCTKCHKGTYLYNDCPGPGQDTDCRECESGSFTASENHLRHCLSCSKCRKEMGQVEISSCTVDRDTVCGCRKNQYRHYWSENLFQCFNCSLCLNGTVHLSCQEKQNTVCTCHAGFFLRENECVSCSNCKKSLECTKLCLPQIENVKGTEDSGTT
Kind of assay: RBA assay; taken as the value of the Fc fusion.

Assay [2] addresses T2, TNFR1 on MRC-5 cells (UniProt P19438 30-455, limits assumed).
T2 sequence (looked up): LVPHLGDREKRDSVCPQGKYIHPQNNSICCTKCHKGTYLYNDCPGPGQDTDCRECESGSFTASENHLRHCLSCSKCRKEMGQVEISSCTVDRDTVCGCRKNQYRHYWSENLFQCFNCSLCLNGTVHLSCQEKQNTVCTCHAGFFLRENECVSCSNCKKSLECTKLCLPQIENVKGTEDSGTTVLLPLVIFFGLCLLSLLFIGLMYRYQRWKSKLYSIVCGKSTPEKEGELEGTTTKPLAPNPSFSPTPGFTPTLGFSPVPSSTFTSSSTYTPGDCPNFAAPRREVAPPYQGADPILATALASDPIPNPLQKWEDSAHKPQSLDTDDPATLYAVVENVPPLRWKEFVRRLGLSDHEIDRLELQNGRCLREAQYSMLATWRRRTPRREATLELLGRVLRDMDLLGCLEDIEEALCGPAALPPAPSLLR
Kind of assay: cell-based or functional assay.

B1: DMS1544 (DOM1h-131-206 Fc fusion) (Fc fusion, not shown: a dimerising Fc or GST)
chain: EVQLLESGGGLVQPGGSLRLSCAASGFTFAHETMVWVRQAPGKGLEWVSHIPPDGQDPFYADSVKGRFTISRDNSKNTLYLQMNSLRAEDTAVYHCALLPKRGPWFDYWGQGTLVTVSSASTHTCPPCPAPELLGGP
notes: Dimeric Fc fusion
For B1, the “Activity (nM), RBA” value in assay [1] was found to be 0.047 nM.

B2: DOM1h-131-206 (other)
VH: EVQLLESGGGLVQPGGSLRLSCAASGFTFAHETMVWVRQAPGKGLEWVSHIPPDGQDPFYADSVKGRFTISRDNSKNTLYLQMNSLRAEDTAVYHCALLPKRGPWFDYWGQGTLVTVSS
As for B2, the “ND50, MRC-5 cell-based assay (TNFα stimulated IL-8 release)” value in assay [2] worked out at 0.71 nM.
